Laboratory results from US20050123936A1, “Method, composition, and kit to design, evaluate, and/or test compounds that modulate regulatory factor binding to nucleic acids” (priority 2003, published 2005).
Blank lines part the entries; values can stand above or below the substance they belong to. Ends that are not written are not given here.

Columns and labels:
[1] = molecular target: T1, Extradenticle (Exd), homeodomain plus extended fourth helix (Drosophila) (UniProt P40427); test: EMSA; conditions: apparent, with polyamide-FYPWM conjugate
T1 sequence: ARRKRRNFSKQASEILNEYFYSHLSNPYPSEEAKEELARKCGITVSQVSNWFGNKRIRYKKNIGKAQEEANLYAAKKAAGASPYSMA

Exd = molecular target: T2, Exd (Drosophila melanogaster, UniProt P40427); test: Example 7 EMSA: recruitment of Exd by linker compounds; assay type: binding; conditions: for ability to recruit Exd: 4° C.; for positioning of the test compound with respect to its hydrophobic docking site on the surface of Exd: short linkers (<4 Å when fully extended)
T2 construct: comprising the homeodomain and the extended fourth helix (residues 238-324); made in house
T2 sequence (P40427 238-324): T1 sequence
Method: The assays were performed with 50 nM of the conjugate pre-incubated with target DNA (thus to bind the anchor moiety to the target nucleic acid) followed by the addition and incubation with Exd.
To determine the effects of longer linker on binding, the ability of compounds using linkers 1, 2 and 4 to recruit Exd at three different temperatures was investigated.

Substance: 50 bp duplex with single optimal polyamide site and adjacent Exd site (Example 7)
- Kd ([1]; linker 1 (PEG), 4 C, much reduced at higher temperature): 0.6 nM
- Kd ([1]; linker 4, 4 C, less than 5-fold decrease at 37 C): 0.08 nM

Substance: Linker 2: Example 7 polyamide-FYPWM conjugate with linker 2, 10-atom linker, ~11 Å (FYPWMK; also: conjugated to polyamide via linker 2)
- ability to recruit Exd (Exd): recruit Exd effectively

- ability to recruit Exd (Exd): recruit Exd effectively
- binding affinity (Exd recruitment) (Exd; higher temperatures (23° C., 37° C.)): dramatically reduced binding affinity
Substance: Linker 1: Example 7 polyamide-FYPWM conjugate with linker 1, defined 28-atom polyethylene glycol linker, ~33 Å (FYPWMK; also: conjugated to polyamide via linker 1)

- ability to recruit Exd in comparison to the compound using linker 5 (Exd; absence of the lysine residue): did not appreciably alter
Substance: Linker 6: Example 7 polyamide-FYPWM conjugate with linker 6, no lysine residue (not fully specified (C-terminus); also: joined via linker 7 (no lysine) to hairpin polyamide)

Substance: Linker 7: Example 7 polyamide-FYPWM conjugate with linker 7, no lysine residue (also: conjugated to polyamide via linker 7)
- positioning of the test compound with respect to its hydrophobic docking site on the surface of Exd (Exd): do not optimally position the test compound

- ability to recruit Exd (Exd): recruit Exd effectively
Substance: Linker 4: Example 7 polyamide-FYPWM conjugate with linker 4, 7-atom linker, ~7 Å (FYPWMK; also: conjugated to polyamide via linker 4)

Substance: Linker 8: Example 7 polyamide-FYPWM conjugate with linker 8, lysine linker, ~2.5 Å (FYPWMK; also: conjugated to polyamide via linker 8)
- positioning of the test compound with respect to its hydrophobic docking site on the surface of Exd (Exd): do not optimally position the test compound
